From patent US20200181259A1

Target: mouse CD47-Fc (mouse) (UniProt Q61735)
Experiment: bio-light interferometry (ForteBio), antibody on AHQ tip, mouse CD47-Fc 100 nM in solution, bivalent

mouse CD47-Fc (mouse), sequence (Q61735 19-140 limits assumed): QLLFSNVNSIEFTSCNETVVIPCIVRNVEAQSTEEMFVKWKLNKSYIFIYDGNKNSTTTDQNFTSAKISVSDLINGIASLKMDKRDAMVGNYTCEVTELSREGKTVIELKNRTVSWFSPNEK
Hu5F9, control anti-CD47 antibody transiently expressed in 293 HEK cells, sequence (VH): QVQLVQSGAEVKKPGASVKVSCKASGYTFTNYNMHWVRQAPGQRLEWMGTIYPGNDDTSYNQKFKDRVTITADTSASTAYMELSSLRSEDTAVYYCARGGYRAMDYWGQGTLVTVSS
Hu5F9, control anti-CD47 antibody transiently expressed in 293 HEK cells, sequence (VL): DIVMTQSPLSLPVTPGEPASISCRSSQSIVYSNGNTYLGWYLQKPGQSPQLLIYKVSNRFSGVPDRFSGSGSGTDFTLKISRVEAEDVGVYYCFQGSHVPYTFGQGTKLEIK

Hu5F9, control anti-CD47 antibody transiently expressed in 293 HEK cells
Kd: 12.7 nM
